In experiment [1] the target is tissue factor (TF) antigen (UniProt P13726). As to the kind of experiment: SPR, His-captured Fab, TF as analyte, 1:1 fit; estimated (*) from a Fab differing only in L chain tag.
For experiment [2] the target is unchanged. Description: SPR, His-captured Fab, TF as analyte; against wild-type D3H44 Fab; KD of this row is an estimated (*) value.
The target in experiment [3] is D3H44 Fab heavy chain L124E_K145M_Q179E. Description: LCCA, SPR of light chain tags; L1:L2 DNA 1:3 normalized to 1:1; competitor m8.
The target of experiment [4] is D3H44 Fab heavy chain L124R_S186K. The experiment is described as above.
Experiment [5] concerns the target D3H44 Fab heavy chain L124R_S186R. The description is as above.
Experiment [6] concerns the target D3H44 Fab heavy chain L124R_S186R (H1 of LCCA sets 9516 and 9515).
Experiment [7] has the same target. The source holds these as a separate data set.
The target in experiment [8] is D3H44 Fab heavy chain L124E_L143D_K145T (H1 of LCCA sets 9214, 9217, 9216, 9219, 9220, 9225, 9228, 9229). As to the kind of experiment: LCCA: H1 co-expressed with L1 and L2 (DNA 333:250:749 ng), His-tag capture on SPR chip, light chain tags detected with anti-HA/anti-FLAG; competitor L1 Q124K_V133G_S176R_T178K.
Experiment [9] deals with D3H44 Fab heavy chain L124R_D146N_Q179K (H1 of LCCA sets 9358, 9359, 9357, 9351, 9352, 9353, 9354, 9350). Description: LCCA: H1 co-expressed with L1 and L2 (DNA 333:250:749 ng), His-tag capture on SPR chip, light chain tags detected with anti-HA/anti-FLAG; competitor L1 V133G_S176D_T178E_T180E.
For experiment [10] the target is unchanged. As to the kind of experiment: LCCA: H1 co-expressed with L1 and L2 (DNA 333:250:749 ng), His-tag capture on SPR chip, light chain tags detected with anti-HA/anti-FLAG; competitor L1 Q124E_V133G_S176D_T178E_T180E.
Experiment [11] concerns the target D3H44 Fab heavy chain L124E_L143D_K145T (H1 of LCCA sets 9214, 9217, 9216, 9219, 9220, 9225, 9228, 9229).
In experiment [12] the target is D3H44 Fab heavy chain L124E_L143E_K145M (H1 of LCCA sets 9269, 9266, 9267, 9260, 9262, 9263).
In experiment [13] the target is D3H44 Fab heavy chain L124E_L143D_K145T (H1 of LCCA sets 9214, 9217, 9216, 9219, 9220, 9225, 9228, 9229). The source holds these as a separate data set.
For experiment [14], the target named is D3H44 Fab heavy chain L124E_L143E_K145M (H1 of LCCA sets 9269, 9266, 9267, 9260, 9262, 9263). As to the kind of experiment: LCCA: H1 co-expressed with L1 and L2 (DNA 333:250:749 ng), His-tag capture on SPR chip, light chain tags detected with anti-HA/anti-FLAG; competitor L2 V133G_S176D_T178D_T180E.
The target of experiment [15] is D3H44 Fab heavy chain L124E_L143D_K145T (H1 of LCCA sets 9214, 9217, 9216, 9219, 9220, 9225, 9228, 9229). Description: LCCA: H1 co-expressed with L1 and L2 (DNA 333:250:749 ng), His-tag capture on SPR chip, light chain tags detected with anti-HA/anti-FLAG; competitor L2 Q124E_V133G_S176D_T178E_T180E.
The target of experiment [16] is D3H44 Fab heavy chain L124E_L143E_K145M (H1 of LCCA sets 9269, 9266, 9267, 9260, 9262, 9263). The experiment is described as above.
For experiment [17], the target named is D3H44 Fab heavy chain L124E_K145T_Q179E. Description: LCCA, SPR of light chain tags; L1:L2 DNA 1:3 normalized to 1:1; competitor m8.
The target is the same in experiment [18]. Description: LCCA, SPR of light chain tags; L1:L2 DNA 1:3 normalized to 1:1; competitor m9.
Experiment [19] has as its target D3H44 Fab heavy chain L124R_S186R. Described as above.
In experiment [20] the target is D3H44 Fab heavy chain L124E_L143E_K145M (H1 of LCCA sets 9269, 9266, 9267, 9260, 9262, 9263). As to the kind of experiment: LCCA: H1 co-expressed with L1 and L2 (DNA 333:250:749 ng), His-tag capture on SPR chip, light chain tags detected with anti-HA/anti-FLAG; competitor L1 Q124K_V133G_S176R_T178K.
The target is the same in experiment [21]. Description: LCCA: H1 co-expressed with L1 and L2 (DNA 333:250:749 ng), His-tag capture on SPR chip, light chain tags detected with anti-HA/anti-FLAG; competitor L1 Q124K_V133G_S176R_T178R.
Experiment [22] deals with D3H44 Fab heavy chain L124R_D146N_Q179K. As to the kind of experiment: LCCA, SPR of light chain tags; L1:L2 DNA 1:3 normalized to 1:1; competitor m8.
In experiment [23] the target is D3H44 Fab heavy chain L124R_Q179K. Described as above.
Experiment [24] addresses D3H44 Fab heavy chain L124R_D146N_Q179K. As to the kind of experiment: LCCA, SPR of light chain tags; L1:L2 DNA 1:3 normalized to 1:1; competitor m9.
For experiment [25], the target named is D3H44 Fab heavy chain L124E_L143E_K145T. Description: LCCA, SPR of light chain tags; L1:L2 DNA 1:3 normalized to 1:1; competitor m10.
Experiment [26] concerns the target D3H44 Fab heavy chain L124R_S186K. The experiment is described as above.
The target of experiment [27] is D3H44 Fab heavy chain L124R_D146N_Q179K (H1 of LCCA sets 9358, 9359, 9357, 9351, 9352, 9353, 9354, 9350). Description: LCCA: H1 co-expressed with L1 and L2 (DNA 333:250:749 ng), His-tag capture on SPR chip, light chain tags detected with anti-HA/anti-FLAG; competitor L2 Q124K_V133G_Q160K_S176R.

Read-outs that look alike come from different tables or passages of the source.

Turning to “D3H44 Fab heterodimer H1L1 of LCCA Set # 9104 (H1 L124E; L1 S131T_V133G_S176R_T178Y)”, the Kd in experiment [1] is 0.16 nM. Moreover, the Change in median values of KD compared to wild type (-(log(KD design)-log(KD wt))) in experiment [2] was -0.01 log.
Turning to “D3H44 light chain Q124E_V133G_S176D_T178D_T180E”, the H1L1:H1L2 normalized median ratio (% of heavy chain paired) in experiment [3] came to 8. Moreover, the H2L2:H2L1 normalized median ratio (% of heavy chain paired) in experiment [4] and in experiment [5] was 92 throughout. Besides, the median LCCA performance normalized to a L1:L2 DNA ratio of 1:1 (ratio H1-L1:H1-L2), H1-L1 share (ratio part of 100) is 95 in experiment [6] and 94 in [7]. Further, the median LCCA performance normalized to a L1:L2 DNA ratio of 1:1 (ratio H1-L1:H1-L2), H1-L2 share (ratio part of 100) in experiment [8] turned out to be 15.
With “D3H44 light chain Q124K_V133G_Q160K_S176R”, the median LCCA performance normalized to a L1:L2 DNA ratio of 1:1 (ratio H1-L1:H1-L2), H1-L2 share (ratio part of 100) in [9] was 26; in experiment [10], 18.
Consider “D3H44 light chain Q124K_V133G_S176R_T178R”, for which the median LCCA performance normalized to a L1:L2 DNA ratio of 1:1 (ratio H1-L1:H1-L2), H1-L1 share (ratio part of 100) is 76 in experiment [11]; 87 in experiment [12]; 87 in experiment [13]; 62 in [14]; 83 in experiment [15]; 84 in experiment [16].
“D3H44 light chain V133G_S176D_T178D_T180E”: the H1L1:H1L2 normalized median ratio (% of heavy chain paired) in experiment [3] was found to be 6; in experiment [17] it was 5; in experiment [18], 4. Moreover, the results for the H2L2:H2L1 normalized median ratio (% of heavy chain paired) in [5] and in experiment [19] were 88 and 85, respectively. Further, the median LCCA performance normalized to a L1:L2 DNA ratio of 1:1 (ratio H1-L1:H1-L2), H1-L2 share (ratio part of 100) in experiment [8] came out at 18; in [20], 37; in experiment [21], 38.
For the substance “D3H44 light chain V133G_S176D_T178E_T180E”, the H1L1:H1L2 normalized median ratio (% of heavy chain paired) in experiment [3] came out at 8; in experiment [17], 5; in experiment [18], 3; in [25], 5. For the same substance, the H2L2:H2L1 normalized median ratio (% of heavy chain paired) was 83 in experiment [22], 93 in experiment [23], 80 in experiment [24] and 92 in experiment [26]. Besides, in experiment [27], the median LCCA performance normalized to a L1:L2 DNA ratio of 1:1 (ratio H1-L1:H1-L2), H1-L1 share (ratio part of 100) was determined as 74.

Broadly, the Kd is the constant that tells how readily two partners part at equilibrium.

Source of the values: patent publication US11306156.
